Data reported in publication PMC12314560.

Molecular target: Angiotensin-converting enzyme 2 (recombinant human ACE2 protein-mFc Tag) (human) (UniProt Q9BYF1)
Test: BLI

Sequence of UniProt Q9BYF1 (Q9BYF1 18-740): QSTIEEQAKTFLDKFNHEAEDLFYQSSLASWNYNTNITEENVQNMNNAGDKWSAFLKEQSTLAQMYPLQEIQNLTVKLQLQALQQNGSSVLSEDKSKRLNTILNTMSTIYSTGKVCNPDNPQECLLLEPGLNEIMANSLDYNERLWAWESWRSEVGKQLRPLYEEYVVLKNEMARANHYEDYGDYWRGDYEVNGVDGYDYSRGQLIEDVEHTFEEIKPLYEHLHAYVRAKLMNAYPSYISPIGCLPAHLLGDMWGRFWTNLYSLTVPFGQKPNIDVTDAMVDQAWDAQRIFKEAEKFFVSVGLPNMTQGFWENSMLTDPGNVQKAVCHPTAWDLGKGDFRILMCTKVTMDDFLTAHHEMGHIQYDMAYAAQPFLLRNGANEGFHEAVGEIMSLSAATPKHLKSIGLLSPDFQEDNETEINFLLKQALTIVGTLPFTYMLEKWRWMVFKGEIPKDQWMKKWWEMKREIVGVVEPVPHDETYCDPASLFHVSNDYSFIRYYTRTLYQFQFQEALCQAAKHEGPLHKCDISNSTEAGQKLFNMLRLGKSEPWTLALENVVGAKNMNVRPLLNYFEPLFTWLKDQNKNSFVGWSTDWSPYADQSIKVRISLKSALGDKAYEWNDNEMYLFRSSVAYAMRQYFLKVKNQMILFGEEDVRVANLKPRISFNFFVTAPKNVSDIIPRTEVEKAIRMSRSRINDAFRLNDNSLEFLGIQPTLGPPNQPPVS

Question: With Beta S1 protein (domain or fragment) as the substance, how does the Kd read?
Answer: Its Kd is 0.472 nM.
